Data reported in the supplement of paper PMC9732359.
± gives the uncertainty stated by the source.

experiment: protein stability index of a GFP-peptide fusion (yeast GPS) (PSI 1-4); higher = more stable; sorted into four equal gates, so the index is relative within each strain; settings: doa10∆
In short: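 Sequencing reads from sorted gates were used to score each peptide. The library consisted of tiled 17-residue yeast protein peptides fused downstream of GFP on a Cherry-expressing plasmid, pooled and carried in yeast. Mid-log cultures in leucine-free medium were split into four equal gates by GFP/Cherry ratio, and each gate's plasmids were PCR-amplified and Illumina-sequenced. The protein stability index adds up, over all gates, the read frequency multiplied by the gate number.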

| Sequence | protein stability index |
| --- | --- |
| GSNKAQISIIDIWSISK [YML031W/NDC1] | 2.55 ± 0.056 |
| GSQIKFIVVPDLLKNAP [SMD3] | 2.05 ± 0.052 |
| GSSALADNKEDVKKPFS [YLR335W/NUP2] | 3.48 ± 0.099 |
| GSSGGVIRMVVLTAAGV [PRE3] | 2.33 ± 0.086 |
| GSSSIIYYDSYIHLAYS [SSN2] | 2.56 ± 0.11 |
| GSTLNVSQMVAVVGQQI [RPO31] | 3.15 ± 0.14 |
| GSYGSLLRFNGVERLIP [PRE4] | 2 ± 0.064 |
| GTAGGNTFGSSSLFNNS [YJL041W/NSP1] | 3.2 ± 0.073 |
| GTGKTLLAKAVANQTSA [RPT2] | 1.96 ± 0.085 |
| GTIDKLQLELTIEDIAV [RPO31] | 2.41 ± 0.064 |
| GTSLTIQHIAAAMVPFI [CDC53] | 2.75 ± 0.05 |
| GTSQNYGTATADDADIE [MED1] | 3.22 ± 0.071 |
| GTVGNSHKTTKEDTVSW [RPL11A] | 3.07 ± 0.095 |
| GVFDPASYAKYLIDHIK [RPL22A] | 2.73 ± 0.25 |
| GVITVHNVFSKEQTIQL [RPN14] | 2.57 ± 0.14 |
| GVYKRDNRTKSTTIKNI [SMC4] | 1.62 ± 0.06 |
| GWFHSHPGYDCWLSNID [RRI1] | 2.85 ± 0.075 |
| GWYHSGPKLRASDLKIN [RPN8] | 1.57 ± 0.036 |
| GYENGMLAQWDLRSPEC [RPN14] | 3.15 ± 0.29 |
| GYGSNKKTKFLSPSGHK [RPL32] | 2.4 ± 0.081 |
| GYYVGYKATATGPKQQE [SCL1] | 3.1 ± 0.12 |
| HANSVVALTGLLIRSKT [YML031W/NDC1] | 1.86 ± 0.04 |

| Sequence | protein stability index |
| --- | --- |
| HDAPRGLFPFESYKPSV [SWI3] | 3.31 ± 0.091 |
| HDELIDSIPRDVAYLLK [YGL172W/NUP49] | 2.49 ± 0.12 |
| HDFLFNTIIRDGSKMLK [RPN14] | 2.05 ± 0.11 |
| HDISKTETSNEDEDEDD [SNU114] | 3.02 ± 0.058 |
| HDLLQIIHFHSHPEKRM [SSN3] | 2.62 ± 0.053 |
| HEKIEDEDEDNDLDEDD [RPN4] | 3.56 ± 0.2 |
| HELSRAELEELEEFEFK [SMD2] | 3.26 ± 0.072 |
| HETLARSSEEINSDNQN [RPN3] | 3.15 ± 0.26 |
| HFIQKLHTARKILVLTG [SIR2] | 1.74 ± 0.14 |
| HGAFMDIIWLQRDLGLY [RRP6] | 1.95 ± 0.047 |
| HGGSRYATKDGVAHLLN [QCR2] | 3.13 ± 0.094 |
| HGKPTKGSSLASAASEA [SSN8] | 1.95 ± 0.08 |
| HGMDFTTDKLRSMVRKW [RPS1A] | 2.42 ± 0.1 |
| HGYFLQDKEKIDNLKDT [ITC1] | 3.18 ± 0.072 |
| HHELIKVKHDSQPFIKF [SSN2] | 3.14 ± 0.085 |
| HHIHHFEKKELQEKFLN [IRR1] | 1.72 ± 0.035 |
| HHNDISNDSQSHFDYNT [YCG1] | 1.89 ± 0.18 |
| HIAHTLPEKVNFRTMQQ [SSN2] | 2.78 ± 0.079 |
| HINKKSQLDLFLRTMKL [GRR1] | 1.94 ± 0.067 |
| HKQELQDLILDLKKKLN [SMC4] | 2.55 ± 0.078 |
| HKQGSSYVAVLGMGKAV [POP7] | 1.69 ± 0.077 |

same assay, conditions: pdr5∆

| Sequence | protein stability index |
| --- | --- |
| GSNKAQISIIDIWSISK [YML031W/NDC1] | 2.76 ± 0.054 |
| GSQIKFIVVPDLLKNAP [SMD3] | 2.13 ± 0.047 |
| GSSALADNKEDVKKPFS [YLR335W/NUP2] | 3.16 ± 0.067 |
| GSSGGVIRMVVLTAAGV [PRE3] | 1.74 ± 0.075 |
| GSSSIIYYDSYIHLAYS [SSN2] | 2.61 ± 0.12 |
| GSTLNVSQMVAVVGQQI [RPO31] | 2.94 ± 0.1 |
| GSYGSLLRFNGVERLIP [PRE4] | 2.44 ± 0.069 |
| GTAGGNTFGSSSLFNNS [YJL041W/NSP1] | 3.09 ± 0.06 |
| GTGKTLLAKAVANQTSA [RPT2] | 1.95 ± 0.1 |
| GTIDKLQLELTIEDIAV [RPO31] | 2.79 ± 0.057 |
| GTSLTIQHIAAAMVPFI [CDC53] | 2.91 ± 0.046 |
| GTSQNYGTATADDADIE [MED1] | 3.29 ± 0.073 |
| GTVGNSHKTTKEDTVSW [RPL11A] | 3.1 ± 0.095 |
| GVITVHNVFSKEQTIQL [RPN14] | 2.63 ± 0.19 |
| GVLYQGNIQISEYNFLE [DIS3] | 3.05 ± 0.16 |
| GVYKRDNRTKSTTIKNI [SMC4] | 1.54 ± 0.062 |
| GWFHSHPGYDCWLSNID [RRI1] | 3.05 ± 0.054 |
| GWYHSGPKLRASDLKIN [RPN8] | 1.95 ± 0.035 |
| GYENGMLAQWDLRSPEC [RPN14] | 3.6 ± 0.2 |
| GYGSNKKTKFLSPSGHK [RPL32] | 2.64 ± 0.09 |
| GYYVGYKATATGPKQQE [SCL1] | 3.2 ± 0.088 |

| Sequence | protein stability index |
| --- | --- |
| HANSVVALTGLLIRSKT [YML031W/NDC1] | 2.18 ± 0.046 |
| HDAPRGLFPFESYKPSV [SWI3] | 3.08 ± 0.11 |
| HDELIDSIPRDVAYLLK [YGL172W/NUP49] | 2.82 ± 0.13 |
| HDFLFNTIIRDGSKMLK [RPN14] | 2.55 ± 0.095 |
| HDISKTETSNEDEDEDD [SNU114] | 3.03 ± 0.057 |
| HDLLQIIHFHSHPEKRM [SSN3] | 2.71 ± 0.053 |
| HEKIEDEDEDNDLDEDD [RPN4] | 3.44 ± 0.09 |
| HELSRAELEELEEFEFK [SMD2] | 3.3 ± 0.071 |
| HFIQKLHTARKILVLTG [SIR2] | 2.36 ± 0.16 |
| HGAFMDIIWLQRDLGLY [RRP6] | 1.49 ± 0.052 |
| HGGSRYATKDGVAHLLN [QCR2] | 2.82 ± 0.055 |
| HGKPTKGSSLASAASEA [SSN8] | 2.42 ± 0.068 |
| HGMDFTTDKLRSMVRKW [RPS1A] | 2.55 ± 0.1 |
| HGYFLQDKEKIDNLKDT [ITC1] | 3.41 ± 0.069 |
| HHELIKVKHDSQPFIKF [SSN2] | 2.71 ± 0.099 |
| HHIHHFEKKELQEKFLN [IRR1] | 1.61 ± 0.043 |
| HHNDISNDSQSHFDYNT [YCG1] | 2.16 ± 0.17 |
| HIAHTLPEKVNFRTMQQ [SSN2] | 2.92 ± 0.072 |
| HINKKSQLDLFLRTMKL [GRR1] | 2.33 ± 0.076 |
| HKQELQDLILDLKKKLN [SMC4] | 2.75 ± 0.16 |
| HKQGSSYVAVLGMGKAV [POP7] | 1.71 ± 0.053 |
